Measurements: US20210388337A1, “PROTEIN-POLYMER CONJUGATES AND METHODS FOR THEIR PREPARATION” (Carnegie Mellon University, priority 2018, published 2021)

Biological target: Biotin-aprotinin (UniProt P00974)
Assay: stopped-flow tryptophan fluorescence, avidin 0.5 µM, biotin-protein 5.0 µM

Native avidin, sequence (P02701 25-152 limits assumed): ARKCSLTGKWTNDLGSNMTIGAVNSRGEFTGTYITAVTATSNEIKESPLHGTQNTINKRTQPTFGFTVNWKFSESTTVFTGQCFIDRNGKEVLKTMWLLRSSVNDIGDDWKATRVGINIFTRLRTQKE

- k (kobs, observed first-order rate constant): 73.5 s⁻¹
Substance: Native avidin (from UniProt P02701 25-152)
